{"source": "patent US20230158060A1", "about": "(INFLARX, published 2023)", "binders": {"B1": {"name": "Flag-tagged MASP-2 N-terminal CUB1-EGF-CUB2 region (other, UniProt O00187 16-296, looked up, not shown: small tags and cut ends)", "chain": "TPLGPKWPEPVFGRLASPGFPGEYANDQERRWTLTAPPGYRLRLYFTHFDLELSHLCEYDFVKLSSGAKVLATLCGQESTDTERAPGKDTFYSLGSSLDITFRSDYSNEKPFTGFEAFYAAEDIDECQVAPGEAPTCDHHCHNHLGGFYCSCRAGYVLHRNKRTCSALCSGQVFTQRSGELSSPEYPRPYPKLSSCTYSISLEEGFSVILDFVESFDVETHPETLCPYDFLKIQTDREEHGPFCGKTLPHRIETKSNTVTITFVTDESGDHTGWKIHYTST", "notes": "domain: CUB1-EGF-CUB2"}}, "molecular_target": "GFP-tagged SARS-CoV N protein, full length (SARS-CoV, UniProt P59595 1-422)", "sequence (P59595 whole entry)": "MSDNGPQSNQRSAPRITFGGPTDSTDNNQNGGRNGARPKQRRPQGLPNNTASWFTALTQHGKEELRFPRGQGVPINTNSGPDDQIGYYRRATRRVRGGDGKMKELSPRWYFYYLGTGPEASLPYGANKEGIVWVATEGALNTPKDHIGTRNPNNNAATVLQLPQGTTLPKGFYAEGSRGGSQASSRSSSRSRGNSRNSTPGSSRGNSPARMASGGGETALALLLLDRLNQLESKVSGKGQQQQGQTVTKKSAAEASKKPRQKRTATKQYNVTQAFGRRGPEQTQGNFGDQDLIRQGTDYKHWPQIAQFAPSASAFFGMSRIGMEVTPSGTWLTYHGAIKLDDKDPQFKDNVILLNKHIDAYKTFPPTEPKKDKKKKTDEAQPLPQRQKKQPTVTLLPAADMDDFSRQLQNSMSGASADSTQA", "experiment": "co-immunoprecipitation on Flag-tagged MASP-2 region beads, anti-GFP immunoblot", "data": [{"binder": "B1", "values": [{"measurement": "binding result", "value": "no binding"}]}]}
